Where no end group is shown, it is not given here.
B1: Phage-1935 (peptide)
peptide: VEKLCKPIWMCNWQ
notes: Clonal phage of the Peptide-180 library, tested as crude supernatant; not shown: fused to the pIII filament protein of the bacteriophage
B2: Phage-1953 (peptide)
peptide: PVKWCIPTWMCAPV
modifications: cysteine pairing not given here; also: fused to phage pIII (clonal phage display)
B3: Phage-1967 (peptide)
peptide: DVKMCIPAWMCSFD
notes: tested as crude clonal phage supernatant
B4: Phage-1966 (peptide)
peptide: WDKWCRPAWMCEST
notes: as for B3
B5: Phage-1968 (peptide)
peptide: YIKWCTPSWMCEAS
notes: as for B3

Columns and labels:
[1] = biological target: T1, Anti-PSMA Fab (SEQ ID NOs: 19, 20); assay: phage binding ELISA; clonal phage supernatant on biotinylated PSMA Fab captured on neutravidin plate, wells pre-incubated with PSMA antigen (competitor: PSMA); anti-M13-HRP detection
T1 construct: also called 006 PSMA Fab
Protocol: (§1) Clonal phage were harvested as crude supernatants and screened via standard ELISAs. […] Prior to the addition of clonal phage. wells were incubated with blocking buffer and PSMA antigen or blocking buffer alone. Without washing or aspirating, clonal phage supernatants were then added to the wells and incubated for a short time. Wells were then washed followed by detection of bound phage using a horse radish conjugated anti-M13 antibody.

[2] = biological target: T1, Anti-PSMA Fab (SEQ ID NOs: 19, 20); assay: phage binding ELISA; clonal phage supernatant on biotinylated PSMA Fab captured on neutravidin plate; anti-M13-HRP detection
Protocol: as §1

[3] = biological target: T2, Anti-PSMA Fab (SEQ ID NOs: 19, 20) (biotinylated (site not stated)); assay: phage ELISA; biotinylated PSMA Fab on neutravidin plate, clonal phage supernatant, anti-M13 HRP detection;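 note: wells preincubated with PSMA antigen in blocking buffer or with blocking buffer only before clonal phage were added for a short incubation, then bound phage detected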
T2 construct: also called 006 PSMA Fab

[4] = biological target: T2, Anti-PSMA Fab (SEQ ID NOs: 19, 20); assay: phage ELISA; biotinylated PSMA Fab on neutravidin plate, wells pre-incubated with PSMA antigen as competitor, anti-M13 HRP detection
Protocol: as §1

[5] = biological target: T3, Anti-PSMA Fab (SEQ ID NOs: 19, 20); assay: phage binding ELISA; biotinylated PSMA Fab on neutravidin plate, clonal phage supernatant, anti-M13 HRP detection;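 note: wells were preincubated with blocking buffer either containing PSMA antigen or without it before crude phage supernatant was added, briefly incubated, then washed prior to detection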
T3 construct: Biotinylated and captured on neutravidin coated plates in the phage ELISA; also called 006 PSMA Fab
Protocol: as §1

[6] = biological target: T3, Anti-PSMA Fab (SEQ ID NOs: 19, 20); assay: phage binding ELISA; PSMA Fab on plate pre-incubated with PSMA antigen as competitor, anti-M13 HRP detection;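 note: crude clonal phage supernatants added without washing to wells preincubated with PSMA in blocking buffer, compared with wells receiving blocking buffer only, then bound phage detected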
Protocol: as §1

[7] = biological target: T4, Anti-PSMA Fab (SEQ ID NOs: 19, 20); assay: phage binding ELISA; biotinylated PSMA Fab captured on neutravidin plate, clonal phage supernatant, anti-M13 HRP detection
T4 construct: Biotinylated and captured on neutravidin coated plates in the phage ELISA; also called 006 PSMA Fab
Protocol: as §1

[8] = biological target: T4, Anti-PSMA Fab (SEQ ID NOs: 19, 20); assay: phage binding ELISA on captured PSMA Fab; wells pre-incubated with PSMA antigen as competitor
Protocol: as §1

Binder | Anti-PSMA Fab signal in the presence of PSMA [1] | Anti-PSMA Fab (SEQ ID NOs: 19, 20) signal [2] | Phage binding ELISA, Anti-PSMA Fab (SEQ ID NOs: 19, 20) signal [5] | Phage binding ELISA, Anti-PSMA Fab signal in the presence of PSMA [6] | also measured
WENWCTPRWMCEGF [Phage-1945] | 0.173 | 1.94 |  |  | 
FPKWCTPAWMCERS [Phage-1937] | 0.0909 | 1.96 |  |  | 
B1 |  |  |  |  | Phage binding ELISA, Anti-PSMA Fab (SEQ ID NOs: 19, 20) signal [3]: 1.96; Phage binding ELISA, Anti-PSMA Fab signal in the presence of PSMA [4]: 0.0992
FAKWCTPVWMCAGL (cysteine pairing not given here; also: displayed as fusion to phage pIII) [Phage-1956] |  |  | 1.92 | 0.281 | 
WPKWCTPPWMCFQD [Phage-1936] | 0.148 | 1.96 |  |  | 
GEKWCIPEWMCTTW [Phage-1941] | 0.135 | 1.95 |  |  | 
MVKWCKPAWMCDVI [Phage-1965] |  |  | 1.91 | 0.078 | 
VEKLCRPSWMCEHM [Phage-1939] | 0.0564 | 1.96 |  |  | 
B2 |  |  | 1.92 | 0.0978 | 
VVKWCLPPWMCTDF [Phage-1962] |  |  | 1.91 | 0.0829 | 
AEHWCIPSWMCAGF (cysteine pairing not given here; also: displayed as fusion to phage pIII) [Phage-1951] |  |  | 1.93 | 0.104 | 
WDKWCIPEWMCESM [Phage-1959] |  |  | 1.92 | 0.0718 | 
ARRSCVFRRGCVFM [Phage-1950] | 0.0701 | 1.93 |  |  | 
B3 |  |  |  |  | Anti-PSMA Fab (SEQ ID NOs: 19, 20) signal [7]: 1.91; Anti-PSMA Fab signal in the presence of PSMA [8]: 0.0712
MPKWCTPAWMCAHQ (cysteine pairing not given here; also: displayed as fusion to phage pIII) [Phage-1952] |  |  | 1.93 | 0.0835 | 
B4 |  |  |  |  | Anti-PSMA Fab (SEQ ID NOs: 19, 20) signal [7]: 1.91; Anti-PSMA Fab signal in the presence of PSMA [8]: 0.0851
WINWCTPEWMCMGF [Phage-1947] | 0.24 | 1.94 |  |  | 

Binder | Anti-PSMA Fab signal in the presence of PSMA [1] | Anti-PSMA Fab (SEQ ID NOs: 19, 20) signal [2] | Phage binding ELISA, Anti-PSMA Fab (SEQ ID NOs: 19, 20) signal [5] | Phage binding ELISA, Anti-PSMA Fab signal in the presence of PSMA [6] | also measured
DGKWCIPPWMCQST [Phage-1944] | 0.077 | 1.94 |  |  | 
DIKLCMPEWMCLGF [Phage-1949] | 0.0792 | 1.93 |  |  | 
DGKWCIPAWMCVDM [Phage-1958] |  |  | 1.92 | 0.0672 | 
LEKWCIPTWMCELF [Phage-1943] | 0.175 | 1.94 |  |  | 
LVKWCTPAWMCEFI [Phage-1963] |  |  | 1.91 | 0.0856 | 
TEMWCKPSWMCYGF [Phage-1946] | 0.101 | 1.94 |  |  | 
GEIWCIPPWMCYAP [Phage-1955] |  |  | 1.92 | 0.0825 | 
LENWCIPAWMCSGF [Phage-1957] |  |  | 1.92 | 0.0656 | 
EGIWCTPAWMCMGF [Phage-1961] |  |  | 1.91 | 0.0798 | 
HEKWCIPEWMCVVT [Phage-1954] |  |  | 1.92 | 0.0642 | 
WENWCRPEWMCTGL [Phage-1940] | 0.0907 | 1.95 |  |  | 
MDNWCTPSWMCVGF [Phage-1948] | 0.0794 | 1.93 |  |  | 
VEKWCVPQWMCGQM [Phage-1942] | 0.0869 | 1.95 |  |  | 
B5 |  |  |  |  | Anti-PSMA Fab (SEQ ID NOs: 19, 20) signal [7]: 1.9; Anti-PSMA Fab signal in the presence of PSMA [8]: 0.113
MEKWCIPSWMCDVN [Phage-1938] | 0.0785 | 1.96 |  |  | 
LEMWCVPAWMCSGF [Phage-1964] |  |  | 1.91 | 0.0771 | 
FEKWCIPDWMCQVM [Phage-1960] |  |  | 1.91 | 0.0817 | 
